We go through five molecules from patent publication US6689868 (Dana-Farber, dated 2004).

First the molecules themselves.
B1: LexA-CD2 tail truncation construct M (other, UniProt P0A7C2 1-202, looked up)
chain: MKALTARQQEVFDLIRDHISQTGMPPTRAEIAQRLGFRSPNAAEEHLKALARKGVIEIVSGASRGIRLLQEEEEGLPLVGRVAAGEPLLAQQHIEGHYQVDPSLFKPNADFLLRVSGMSMKDIGIMDGDLLAVHKTQDVRNGQVVVARIDDEVTVKRLKKQGNKVELLPENSEFKPIVVDLRQQSFTIEGLAVGVIRNGDWLNDEELETRAHRVATEERGRKPHQIPASTPQNPATSQHPPPPPGHRSQAPSHRPPPPGHRVQHQPQKR
B3: LexA-CD2 tail truncation construct N (other, UniProt P0A7C2 1-202, looked up)
chain: MKALTARQQEVFDLIRDHISQTGMPPTRAEIAQRLGFRSPNAAEEHLKALARKGVIEIVSGASRGIRLLQEEEEGLPLVGRVAAGEPLLAQQHIEGHYQVDPSLFKPNADFLLRVSGMSMKDIGIMDGDLLAVHKTQDVRNGQVVVARIDDEVTVKRLKKQGNKVELLPENSEFKPIVVDLRQQSFTIEGLAVGVIRNGDWLNDEELETRAHRVATEERGRKPHQIPASTPQNPATSQHPPPPPGHRSQAPS

Assay [1] has as its target T1, B42-CD2BP1S/ΔSH3 (CD2BP1S truncation construct lacking the terminal SH3 domain) (human, UniProt O43586 1-359).
T1 sequence: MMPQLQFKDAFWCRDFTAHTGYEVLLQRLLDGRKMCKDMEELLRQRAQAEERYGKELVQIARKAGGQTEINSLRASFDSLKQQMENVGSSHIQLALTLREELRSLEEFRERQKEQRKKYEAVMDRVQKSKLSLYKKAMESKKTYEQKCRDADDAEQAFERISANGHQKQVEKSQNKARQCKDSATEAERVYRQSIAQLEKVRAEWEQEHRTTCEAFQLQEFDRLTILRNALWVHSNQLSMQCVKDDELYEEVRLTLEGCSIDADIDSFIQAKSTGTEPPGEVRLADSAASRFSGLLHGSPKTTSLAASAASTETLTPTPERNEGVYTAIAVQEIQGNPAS
Put plainly: yeast two-hybrid, lacZ induction. The protocol:
(§1) These tail variants were tested in the yeast two-hybrid system for their interaction with CD2BP1L or CD2BP1S as well as CD2BP1 truncations. In FIG. 7, open bars represent the region of CD2BP1 sequence with homology to yeast cdc15 protein aa 116–277; solid bars represent PEST rich regions in the CD2BP1 sequences; and hatched bars represent the SH3 domain in the CD2BP1 sequences. CD2BP1S/ΔSH3 represents CD2BP1 lacking the SH3 domain. $SH334$ includes the entire SH3 domain of CD2BP1 and 34 N-terminal amino acids. $SH366$ includes the SH3 domain of CD2BP1S and 66 N-terminal amino acids. $SH383$ includes the SH3 domain of CD2BP1L and 83 N-terminal amino acids of CD2BP1L. SH^3GGGGS includes the entire SH3 domain of CD2BP1 and an artificial N-terminal linker consisting of the residues shown.
(§2) The strength of the interaction between the CD2 variants and the CD2BP1 constructs was determined by lacZ induction.

Assay [2] concerns the target T2, B42-CD2BP1L fusion (CD2BP1L in pJG4-5) (human, UniProt O43586 1-416).
T2 sequence: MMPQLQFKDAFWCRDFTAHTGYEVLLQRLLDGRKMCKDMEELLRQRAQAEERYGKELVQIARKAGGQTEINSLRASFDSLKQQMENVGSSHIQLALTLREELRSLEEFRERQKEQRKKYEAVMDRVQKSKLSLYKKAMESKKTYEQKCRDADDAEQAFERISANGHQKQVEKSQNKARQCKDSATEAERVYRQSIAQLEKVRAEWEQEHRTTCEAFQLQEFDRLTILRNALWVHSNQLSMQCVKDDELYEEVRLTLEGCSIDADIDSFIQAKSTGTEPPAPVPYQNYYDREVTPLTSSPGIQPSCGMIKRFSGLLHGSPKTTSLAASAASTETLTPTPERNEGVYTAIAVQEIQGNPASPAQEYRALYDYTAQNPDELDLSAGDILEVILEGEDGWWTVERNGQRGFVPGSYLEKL
In words: yeast two-hybrid, lacZ induction. Here is the method: as §1, §2

The target of assay [3] is T3, B42-CD2BP1S fusion (CD2BP1S in pJG4-5) (human, UniProt O43586 1-416).
T3 construct: also called clone #48; CD2BP1S/pJG4-5
T3 sequence: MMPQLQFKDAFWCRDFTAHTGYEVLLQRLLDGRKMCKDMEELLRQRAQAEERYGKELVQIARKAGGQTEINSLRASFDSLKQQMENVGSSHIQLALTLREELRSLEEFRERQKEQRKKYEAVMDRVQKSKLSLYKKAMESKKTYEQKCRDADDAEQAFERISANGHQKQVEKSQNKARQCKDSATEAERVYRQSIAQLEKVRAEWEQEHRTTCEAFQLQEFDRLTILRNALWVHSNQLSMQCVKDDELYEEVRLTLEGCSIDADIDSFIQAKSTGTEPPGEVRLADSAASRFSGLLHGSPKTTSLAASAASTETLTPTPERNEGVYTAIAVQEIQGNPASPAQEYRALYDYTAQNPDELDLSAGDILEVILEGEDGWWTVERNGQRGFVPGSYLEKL
Put plainly: yeast two-hybrid, lacZ induction. The protocol: as §1, §2

Assay [4] addresses T3, B42-CD2BP1S fusion (CD2BP1S in pJG4-5). In words: yeast two-hybrid (LexA-CD2 tail variant / B42-CD2BP1 construct), lacZ induction. The protocol: as §1, §2
Assay [5] deals with T4, human CD2 (wild-type, full length) (human, UniProt P06729 25-351).
T4 construct: whole, on cells; In pull-downs and immunoprecipitations it stood in Triton X-100 cell lysates; in staining and rosetting on the cell surface; also called wtCD2; hCD2wt (W33)
T4 sequence (looked up): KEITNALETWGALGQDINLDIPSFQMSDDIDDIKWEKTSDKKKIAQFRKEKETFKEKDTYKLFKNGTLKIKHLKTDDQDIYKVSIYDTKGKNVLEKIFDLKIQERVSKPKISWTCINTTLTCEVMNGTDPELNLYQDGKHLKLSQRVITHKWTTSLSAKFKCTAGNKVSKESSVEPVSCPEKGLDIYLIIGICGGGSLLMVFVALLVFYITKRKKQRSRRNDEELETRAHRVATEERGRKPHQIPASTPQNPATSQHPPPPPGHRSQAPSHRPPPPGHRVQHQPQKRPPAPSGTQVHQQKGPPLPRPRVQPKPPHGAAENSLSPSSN
Put plainly: cell-cell conjugates of activated human T cells with CD58-transfected CHO cells, immunofluorescence. Here is the method:
For image analysis of the CD2BP1 association with CD2, CD2 molecules on the activated T cell surface were induced to cluster by either a pair of anti-CD2 antibodies (anti-T11_2 plus anti-T11_3) or by CD58 ligand directed CD2 relocalization. For antibody crosslinking, activated T cells were incubated with anti-T11_2 mAb (5 μg/ml) and direct Texas red labeled anti-T11_3 mAb (1:50) in FACS buffer at 4° C. for 30 min, followed by two washes with FACS buffer and fixation by incubation in 2% paraformaldehyde/PBS. The cells were then permeabilized and stained with directly FITC-labeled anti-CD2BP1 mAb, followed by fluoroimaging analysis as described above. For ligand induced surface CD2 relocalization, activated T cells were incubated with CD58 transfected CHO cells prebound to coverslips to induce cellular conjugate formation as described previously (Li et al., 1996). After washing off the non-conjugated T cells and fixation in 1% parafornaldehyde, the conjugates were stained with anti-T11_3 antibody (1:50) at 4° C. for 30 min, followed by washing, permeabilization and staining with anti-CD2BP1 antibody as described above. The stained conjugates on the coverslips were then subject to fluoroimaging analysis. […]

The target of assay [6] is B1. Put plainly: yeast two-hybrid, lacZ induction. The protocol:
as §1, §2

Assay [7] has as its target B3. In words: yeast two-hybrid, lacZ induction. Here is the method: as §1, §2

In the case of B1, the binding result in assay [1], in assay [2] and in assay [3] was “no binding” throughout.

B2: LexA-CD2 cytoplasmic tail fusion (CD2 bait, aa 221-327) in pEG202 (other, UniProt P0A7C2 1-202, looked up)
chain: MKALTARQQEVFDLIRDHISQTGMPPTRAEIAQRLGFRSPNAAEEHLKALARKGVIEIVSGASRGIRLLQEEEEGLPLVGRVAAGEPLLAQQHIEGHYQVDPSLFKPNADFLLRVSGMSMKDIGIMDGDLLAVHKTQDVRNGQVVVARIDDEVTVKRLKKQGNKVELLPENSEFKPIVVDLRQQSFTIEGLAVGVIRNGDWLNDEELETRAHRVATEERGRKPHQIPASTPQNPATSQHPPPPPGHRSQAPSHRPPPPGHRVQHQPQKRPPAPSGTQVHQQKGPPLPRPRVQPKPPHGAAENSLSPSSN
notes: The CD2 aa numbers (tail ends at 327) appear to count on mature CD2, not on the precursor; also called CD2 tail; pEG202/CD2
With B2, the results for the binding result in assay [4], in assay [1] and in assay [2] were “binds”, “no binding” and “binds”, respectively.

Take B3: the binding result in assay [1], in assay [2] and in assay [3] was “no binding” throughout.

B4: human CD58 (on transfected CHO cells) (ligand, UniProt P19256 29-250, looked up)
chain: FSQQIYGVVYGNVTFHVPSNVPLKEVLWKKQKDKVAELENSEFRAFSSFKNRVYLDTVSGSLTIYNLTSSDEDEYEMESPNITDTMKFFLYVLESLPSPTLTCALTNGSIEVQCMIPEHYNSHRGLIMYSWDCPMEQCKRNSTSIYFKMENDLPQKIQCTLSNPLFNTTSSIILTTCIPSSGHSRHRYALIPIPLAVITTCIVLYMNGILKCDRKPDRTNSN
notes: whole, on cells; also called CD58 ligand; human CD58-transfected CHO cells
B4: the binding result in assay [5] is listed as “binds”.

B5: B42-SH334 (SH3 domain of CD2BP1 plus 34 N-terminal amino acids) (other, not shown: large carriers)
chain: ASAASTETLTPTPERNEGVYTAIAVQEIQGNPASPAQEYRALYDYTAQNPDELDLSAGDILEVILEGEDGWWTVERNGQRGFVPGSYLEKL
Take B5: the binding result in assay [6] and in assay [7] was “no binding” throughout.
